Changes are numbered by the printed parent chain.

What all share (test): flow cytometry, alanine-scan library in HEK-293T, with cytochalasin B
One assay concerns the target T1, hsGLUT4 V306A (human, UniProt P14672 1-509).
T1 sequence: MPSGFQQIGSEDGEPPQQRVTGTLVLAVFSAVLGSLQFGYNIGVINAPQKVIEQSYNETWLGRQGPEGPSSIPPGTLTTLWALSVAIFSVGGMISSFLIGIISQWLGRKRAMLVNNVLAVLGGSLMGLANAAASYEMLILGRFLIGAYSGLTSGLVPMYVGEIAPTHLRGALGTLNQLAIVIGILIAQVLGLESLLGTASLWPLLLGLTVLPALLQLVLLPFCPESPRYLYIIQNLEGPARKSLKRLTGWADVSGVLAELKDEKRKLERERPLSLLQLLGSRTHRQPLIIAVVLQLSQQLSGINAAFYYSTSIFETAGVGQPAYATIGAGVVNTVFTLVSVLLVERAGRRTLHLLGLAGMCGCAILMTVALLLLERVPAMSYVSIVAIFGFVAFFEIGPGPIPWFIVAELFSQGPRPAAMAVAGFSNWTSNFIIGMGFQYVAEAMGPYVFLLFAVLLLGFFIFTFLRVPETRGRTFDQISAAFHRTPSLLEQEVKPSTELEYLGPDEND
The procedure, abridged: (§1)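 HEK-293T cells expressing individual GLUT4 alanine mutants were stained 48 h post-transfection with anti-GLUT4 scFv MAbs (2 μg/ml), then biotinylated secondary and streptavidin-PerCP, and read by high-throughput flow cytometry. Where used, cytochalasin B (10 uM final) was given for 30 min before and during primary antibody staining.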

A further assay has as its target T2, hsGLUT4 G356A (human, UniProt P14672 1-509).
T2 sequence: T1 sequence with A306V, G356A
In short, it runs like this:
as §1

Another assay has as its target T3, hsGLUT4 E162A (human, UniProt P14672 1-509).
T3 sequence: T1 sequence with E162A, A306V
In short, it runs like this:
as §1

For a further assay, the target named is T4, hsGLUT4 Q298A (human, UniProt P14672 1-509).
T4 sequence: T1 sequence with Q298A, A306V
The procedure, abridged: as §1

B1: AB102 (Fc fusion)
scFv: ALTQPSSVSANLGGTVKITCSGGGSYGYGWYQQKSPGSAPVTVIYSNDQRPSDIPSRFSGSKSGSTATLTITGVRAEDEAIYYCGSTDSDYVGIFGAGTTLTVLGQSSRSSGGGGSSGGGGSAVTLDESGGGLQTPGGTLSLVCKASGFDFSSYATIWVRQAPGKGLEWVAGISGTGTGSSTGYAPAVKGRATISRDNGQSTVRLQLNNLRAEDTGSYFCAKSTGYGDSWIYPDSIDAWGHGTEVIVSS
notes: also called MAb AB102; not shown: Fc fragment of human IgG1, cloned in frame with the scFv
Take B1: the “% of binding to wild type GLUT4” value with hsGLUT4 V306A came to 29%; with hsGLUT4 G356A, 72%; in the assay with hsGLUT4 E162A it was 7%; with hsGLUT4 Q298A, 107%.
